Experimental data: patent US20080312141 (published 2008)
No end group written: not given here.

T1: cathepsin G (human, UniProt P08311)
T1 chain: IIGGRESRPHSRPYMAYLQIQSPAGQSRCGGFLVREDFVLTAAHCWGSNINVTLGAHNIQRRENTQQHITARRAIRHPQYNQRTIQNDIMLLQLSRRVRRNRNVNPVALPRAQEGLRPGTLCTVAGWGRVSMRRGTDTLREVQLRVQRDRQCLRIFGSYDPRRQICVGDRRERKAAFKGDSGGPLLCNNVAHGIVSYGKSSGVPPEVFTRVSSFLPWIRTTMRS


How the values were obtained:
PSA [1] = biological target: T2, PSA (human, UniProt P07288); assay: other, IFMA
hK2 = hK2 (human, UniProt P20151); assay: other, IFMA
hK2, sequence (P20151 25-261): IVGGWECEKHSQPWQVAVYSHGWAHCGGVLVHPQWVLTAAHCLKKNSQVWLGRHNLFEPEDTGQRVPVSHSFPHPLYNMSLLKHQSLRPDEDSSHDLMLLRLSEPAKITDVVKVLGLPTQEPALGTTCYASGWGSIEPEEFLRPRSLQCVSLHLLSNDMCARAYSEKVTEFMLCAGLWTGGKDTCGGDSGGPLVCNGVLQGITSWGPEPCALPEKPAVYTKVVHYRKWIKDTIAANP

trypsin = assay: other, IFMA
cathepsin G = biological target: T1, cathepsin G; assay: other, IFMA
PSA [2] = biological target: T2, PSA; assay: competition, IFMA with free PSA

T2 sequence (P07288 25-261): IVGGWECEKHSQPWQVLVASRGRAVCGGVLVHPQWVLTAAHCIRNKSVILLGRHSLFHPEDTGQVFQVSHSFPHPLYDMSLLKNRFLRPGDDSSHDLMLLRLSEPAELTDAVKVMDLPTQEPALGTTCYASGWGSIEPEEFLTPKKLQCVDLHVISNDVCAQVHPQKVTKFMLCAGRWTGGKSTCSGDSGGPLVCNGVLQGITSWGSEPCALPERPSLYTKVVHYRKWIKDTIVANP

Row | Binder | binding result (PSA [1]) | binding result (hK2) | binding result (trypsin) | binding result (cathepsin G) | IC50 (PSA [2])
1 | CLSTCAQSCRISC (not fully specified (bridges); cysteine pairing not given here; also: GST fusion protein) [GST-D-1] | no binding | – | – | – | –
2 | CVAYCIEHHCWTC [GST-C-4] | – | no binding | no binding | no binding | 0.7 nM
